Assay: Biotransformation of flavanones with whole cells of E. coli BL21 (DE3)-AthF3H
Format: biochemical
Conditions: whole cells OD10, 1 g/L substrate, pH 7, 30° C., 2 h, all substrates
Procedure: The gene (GenBank: U33932) encoding the flavanone-3-hydroxylase (F3H) from Arabidopsis thaliana was ordered codon-optimized for E. coli. E. coli BL21 (DE3) was transformed with the resulting construct. For the precultures LB medium containing kanamycin (50 μg/mL) was inoculated with E. coli BL21 (DE3) strains harboring the constructs and incubated at 37° C. and 200 rpm over-night. The preculture was used to inoculate the main culture of 400 mL LB medium containing kanamycin (50 μg/mL), which was incubated at 37° C. until the optical density at 600 nm (OD600) reached approximately 0.8. Expression of AthF3H was induced by 0.1 mM IPTG (isopropyl-D-thiogalactopyranoside) and the cultures were shaken at 20-25° C. for 20 h. The cells were harvested by centrifugation, and then resuspended in 100 mM potassium phosphate buffer (KPi, pH 7) to an OD of 50.
Biotransformations were carried out with whole cells of E. coli BL21 (DE3)-AthF3H at OD10 in a total volume of 1 mL in 100 mM potassium phosphate buffer (KPi, pH 7) containing 10% DMSO, 1 g/L of eriodictyol, hesperetin, homoeriodictyol, pinocembrin, liquiritigenin or 5-deoxyeriodictyol, 10 mM α-ketoglutarate, 10 mM ascorbic acid and 0.25 mM FeSO4 at 30° C. and 1000 rpm for 2 h. […]

B1: AthF3H: flavanone-3-hydroxylase (F3H) from Arabidopsis thaliana (GenBank: U33932), expressed in E. coli BL21 (DE3) (protein, UniProt Q9S818 1-358, looked up)
Naringenin,2-oxoglutarate …: MAPGTLTELAGESKLNSKFVRDEDERPKVAYNVFSDEIPVISLAGIDDVDGKRGEICRQIVEACENWGIFQVVDHGVDTNLVADMTRLARDFFALPPEDKLRFDMSGGKKGGFIVSSHLQGEAVQDWREIVTYFSYPVRNRDYSRWPDKPEGWVKVTEEYSERLMSLACKLLEVLSEAMGLEKESLTNACVDMDQKIVVNYYPKCPQPDLTLGLKRHTDPGTITLLLQDQVGGLQATRDNGKTWITVQPVEGAFVVNLGDHGHFLSNGRFKNADHQAVVNSNSSRLSIATFQNPAPDATVYPLKVREGEKAILEEPITFAEMYKRKMGRDLELARLKKLAKEERDHKEVDKPVDQIFA
  conversion of flavanone substrates by F3H: full conversion of the available (S)-enantiomer
